B1: FEM1A (parent)
chain: NIVEYLIQEQPGQEQVAGGEAQPG

Variants of: B1
Experiment: protein stability index of a GFP-peptide fusion (GPS, HEK-293T) (PSI 1-6); higher = more stable
Settings: c terminus: a fixed tail appended
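Further: lentivirally expressed fusions sorted by FACS into six bins by GFP to DsRed ratio, PSI derived from sequencing read proportions per bin multiplied by bin number.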

| Variant | protein stability index |
| --- | --- |
| P11D | 4.47 |
| P11R | 3.42 |
| P11G | 3.89 |
| P11S | 3.96 |
| P11M | 2.6 |
| P11A | 3.98 |
| P11L | 2.21 |
| P11I | 2.65 |
| P11V | 3.28 |
| P11N | 3.8 |
| P11Q | 3.69 |
| P11T | 3.88 |
| P11E | 4.27 |
| P11K | 3.74 |
| P11Y | 2.65 |
| P11F | 2.75 |
| P11W | 2.13 |
| Q15E | 4.79 |
| Q15D | 4.08 |
| Q15H | 4.02 |
| Q15N | 4.56 |
| Q15F | 3.24 |
| Q15C | 4.19 |
| Q15R | 3.78 |

| Variant | protein stability index |
| --- | --- |
| Q15G | 4.78 |
| Q15K | 3.91 |
| Q15L | 3.53 |
| Q15I | 4.08 |
| Q15A | 4.2 |
| Q15S | 4.52 |
| Q15W | 3.22 |
| Q15Y | 3.67 |
| Q15T | 3.17 |
| Q15V | 3.66 |
| Q15M | 3.78 |
| Q15P | 4.32 |
| G12M | 4.03 |
| G12K | 4.19 |
| G12V | 3.95 |
| G12P | 4.87 |
| G12Q | 4.61 |
| G12C | 4.03 |
| G12W | 2.89 |
| G12F | 3.09 |
| G12T | 3.87 |
| G12A | 3.83 |
| G12Y | 3.12 |
| G12L | 3.44 |

| Variant | protein stability index |
| --- | --- |
| G12H | 4.24 |
| G12I | 3.86 |
| G12R | 2.94 |
| G12E | 4.73 |
| G12S | 4.65 |
| G12D | 4.69 |
| G12N | 4.5 |
| Q10S | 4.53 |
| Q10K | 4.3 |
| Q10Y | 3.09 |
| Q10P | 4.54 |
| Q10H | 3.88 |
| Q10N | 4.27 |
| Q10A | 4.34 |
| Q10R | 4.03 |
| Q10E | 4.62 |
| Q10W | 2 |
| Q10L | 3.43 |
| Q10D | 4.37 |
| Q10F | 3.16 |
| Q10C | 3.83 |
| Q10M | 3.21 |
| Q10T | 3.69 |
| Q10V | 3.22 |

| Variant | protein stability index |
| --- | --- |
| Q10I | 3.75 |
| Q13H | 4.04 |
| Q13I | 3.35 |
| Q13L | 3.27 |
| Q13R | 3.79 |
| Q13P | 4.26 |
| Q13E | 4.79 |
| Q13W | 3.18 |
| Q13F | 3.78 |
| Q13V | 4.06 |
| Q13A | 4.02 |
| Q13K | 4.48 |
| Q13Y | 3.72 |
| Q13T | 3.94 |
| Q13N | 4.42 |
| Q13D | 4.11 |
| Q13M | 3.86 |
| Q13G | 4.18 |
| Q13S | 3.85 |
| L6C | 5.11 |
| L6D | 5.26 |
| L6V | 5.11 |
| L6I | 4.63 |
| L6E | 5.82 |

| Variant | protein stability index |
| --- | --- |
| L6F | 4.71 |
| L6Y | 5.11 |
| L6R | 5.16 |
| L6A | 5.36 |
| L6T | 5.59 |
| L6G | 5.51 |
| L6P | 5.7 |
| L6K | 5.42 |
| L6M | 4.5 |
| L6N | 5.71 |
| L6H | 5.61 |
| L6Q | 5.35 |
| L6W | 4.44 |
| L6S | 5.45 |
| E4H | 3.56 |
| E4T | 4.6 |
| E4P | 4.76 |
| E4F | 2.4 |
| E4N | 4.22 |
| E4D | 4.79 |
| E4A | 3.48 |
| E4V | 1.82 |
| E4K | 4.11 |
| E4I | 1.86 |

| Variant | protein stability index |
| --- | --- |
| E4Q | 3.95 |
| E4S | 3.64 |
| E4L | 1.92 |
| E4R | 3.48 |
| E4M | 2 |
| E4G | 4.16 |
| E4C | 3.11 |
| E4W | 2.52 |
| E4Y | 2.31 |
| V16C | 4.02 |
| V16T | 4.42 |
| V16E | 4.35 |
| V16D | 4.16 |
| V16G | 4.6 |
| V16P | 4.29 |
| V16Q | 4.3 |
| V16N | 3.87 |
| V16A | 4.52 |
| V16R | 4.2 |
| V16I | 3.86 |
| V16Y | 4.05 |
| V16H | 4.36 |
| V16L | 3.94 |
| V16S | 3.86 |

| Variant | protein stability index |
| --- | --- |
| V16K | 4.29 |
| V16F | 3.03 |
| V16M | 4.68 |
| V16W | 3.81 |
| I7A | 5.14 |
| I7L | 3.69 |
| I7D | 5.39 |
| I7S | 4.75 |
| I7M | 4.25 |
| I7Y | 4.33 |
| I7G | 4.55 |
| I7F | 4.14 |
| I7H | 4.74 |
| I7N | 5.3 |
| I7C | 4.78 |
| I7T | 4.65 |
| I7R | 4.92 |
| I7W | 3.95 |
| I7V | 4.43 |
| I7Q | 5.3 |
| I7K | 5.17 |
| I7E | 5.3 |
| I7P | 5.71 |
